From US20140072582A1 come the findings set out here.

In general, EC50 refers to the concentration giving half of the maximal effect. Lower therefore signals a more potent agent.

This assay addresses complement component C1q human serum (Sigma Cat#:C1740-0.5MG) (human) (UniProt P02745). In words: ELISA, C1q coated on the plate. On the technique in general: In an ELISA, binding on a coated surface is turned into a signal by an enzyme label.
UniProt P02745, sequence (P02745 23-245 limits assumed, chain 1 of 3): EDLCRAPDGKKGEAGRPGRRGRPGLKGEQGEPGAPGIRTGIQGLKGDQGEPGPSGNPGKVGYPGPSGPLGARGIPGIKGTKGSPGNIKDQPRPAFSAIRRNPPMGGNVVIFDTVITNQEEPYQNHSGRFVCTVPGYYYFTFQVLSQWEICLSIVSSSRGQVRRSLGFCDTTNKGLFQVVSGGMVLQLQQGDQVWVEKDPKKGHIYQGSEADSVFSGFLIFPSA
UniProt P02745, sequence (P02746 28-253 limits assumed, chain 2 of 3, further chain): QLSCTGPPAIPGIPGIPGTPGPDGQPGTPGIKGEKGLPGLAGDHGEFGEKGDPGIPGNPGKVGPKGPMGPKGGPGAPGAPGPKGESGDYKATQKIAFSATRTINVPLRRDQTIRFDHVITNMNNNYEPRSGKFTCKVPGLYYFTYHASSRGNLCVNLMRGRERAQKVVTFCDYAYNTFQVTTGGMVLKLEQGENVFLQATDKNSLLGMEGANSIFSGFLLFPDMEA
UniProt P02745, sequence (P02747 29-245 limits assumed, chain 3 of 3, further chain): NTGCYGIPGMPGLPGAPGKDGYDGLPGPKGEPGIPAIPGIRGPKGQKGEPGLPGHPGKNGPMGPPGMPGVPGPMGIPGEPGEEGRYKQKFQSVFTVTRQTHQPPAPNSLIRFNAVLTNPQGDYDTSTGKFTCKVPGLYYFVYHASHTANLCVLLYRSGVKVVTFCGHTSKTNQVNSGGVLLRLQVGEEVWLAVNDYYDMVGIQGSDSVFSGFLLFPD

Take “GB4500 (Rituximab), anti-CD20 monoclonal antibody”: the EC50 came to 34.5 µg/mL. Substance “GB7500 (Adalimumab), anti-TNF monoclonal antibody” displayed an EC50 of 202 µg/mL. This EC50 lies about 5.9-fold higher than the previous one.
